The values that follow come from US20140341917A1 (Merck KGaA, published 2014).

Changes are numbered by the printed parent chain. Names and notes keep the numbering of the source.

The target in test [1] is T1, human PD-L1 (human, UniProt Q9NZQ7 19-238, limits assumed).
T1 construct: Protein used in the Biacore assays of 3.1
Briefly: Biacore; relative to A09-188-1.

Test [2] addresses T1, human PD-L1. In words: Biacore kinetic profile.
The next test has as its target T2, mouse PD-L1 (mouse, UniProt Q9EP73 19-238, limits assumed).
T2 construct: Biacore protein
Briefly: ELISA, later Biacore and FACS on PD-L1 expressing cells (hit selection, IgG format).

For another test, the target named is T3, hu-B7.2-huFc (human, UniProt P42081 26-245, limits assumed).
T3 construct: not shown: human Fc (huFc)
T3 sequence (looked up): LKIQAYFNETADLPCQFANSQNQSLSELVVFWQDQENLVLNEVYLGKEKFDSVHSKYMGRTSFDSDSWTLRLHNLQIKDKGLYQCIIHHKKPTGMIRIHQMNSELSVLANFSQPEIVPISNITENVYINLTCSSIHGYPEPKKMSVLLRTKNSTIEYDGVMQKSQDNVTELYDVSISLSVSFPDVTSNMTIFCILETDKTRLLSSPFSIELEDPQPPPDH
In words: Biacore.

The target in a further test is T4, hu-PDL-2-huFc (human, UniProt Q9BQ51 20-219, limits assumed).
T4 construct: not shown: human Fc (huFc)
T4 sequence (looked up): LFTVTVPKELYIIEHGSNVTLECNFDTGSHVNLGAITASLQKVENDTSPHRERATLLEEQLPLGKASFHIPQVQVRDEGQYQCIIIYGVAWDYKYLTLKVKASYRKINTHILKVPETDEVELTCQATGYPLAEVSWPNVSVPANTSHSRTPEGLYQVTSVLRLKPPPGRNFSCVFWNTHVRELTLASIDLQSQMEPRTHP
Briefly: Biacore.

The target of a further test is T5, hu-B7.1-huFc (human, UniProt P33681 35-242, limits assumed).
T5 construct: not shown: human Fc (huFc)
T5 sequence (looked up): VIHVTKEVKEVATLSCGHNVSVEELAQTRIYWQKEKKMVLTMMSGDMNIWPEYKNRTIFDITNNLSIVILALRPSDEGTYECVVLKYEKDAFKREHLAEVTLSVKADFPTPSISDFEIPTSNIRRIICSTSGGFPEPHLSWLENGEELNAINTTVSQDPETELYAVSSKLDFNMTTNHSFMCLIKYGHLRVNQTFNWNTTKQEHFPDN
Briefly: Biacore.

In another test the target is T6, huB7-H2-huFc (human, UniProt O75144 19-258, limits assumed).
T6 construct: not shown: human Fc (huFc)
T6 sequence (looked up): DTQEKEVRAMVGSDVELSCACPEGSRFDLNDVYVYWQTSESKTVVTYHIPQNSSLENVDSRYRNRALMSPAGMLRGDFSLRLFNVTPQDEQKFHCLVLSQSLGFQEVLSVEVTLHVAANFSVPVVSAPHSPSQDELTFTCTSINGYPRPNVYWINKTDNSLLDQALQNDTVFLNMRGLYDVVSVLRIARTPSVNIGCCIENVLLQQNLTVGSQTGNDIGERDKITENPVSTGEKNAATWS
In words: Biacore.

In a further test the target is T7, huB7-H3-huFc (human, UniProt Q5ZPR3-2 29-245, limits assumed).
T7 construct: not shown: human Fc (huFc)
T7 sequence (looked up): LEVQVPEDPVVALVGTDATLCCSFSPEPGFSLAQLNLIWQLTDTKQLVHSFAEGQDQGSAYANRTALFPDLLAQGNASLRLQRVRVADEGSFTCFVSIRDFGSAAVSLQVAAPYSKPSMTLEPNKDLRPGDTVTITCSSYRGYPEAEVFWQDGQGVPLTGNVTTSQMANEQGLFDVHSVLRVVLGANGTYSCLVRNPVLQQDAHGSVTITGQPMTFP
Briefly: Biacore.

Test [3] has as its target T8, cynomolgus monkey PD-L1 expressed on the HEK cell surface (cynomolgus monkey, UniProt G7PSE7 19-290).
T8 construct: The sentence prints only 'cynomolgus monkey expressed on the HEK cell surface'
In words: direct FACS binding, HEK cells expressing cynomolgus monkey PD-L1.

T1 sequence (Q9NZQ7 19-238 limits assumed): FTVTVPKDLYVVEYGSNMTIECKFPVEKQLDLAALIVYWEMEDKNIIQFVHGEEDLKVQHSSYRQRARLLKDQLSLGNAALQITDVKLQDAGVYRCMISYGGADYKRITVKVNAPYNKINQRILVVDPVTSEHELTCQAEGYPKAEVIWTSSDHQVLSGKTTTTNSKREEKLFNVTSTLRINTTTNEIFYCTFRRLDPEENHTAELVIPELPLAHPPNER
T2 sequence (Q9EP73 19-238 limits assumed): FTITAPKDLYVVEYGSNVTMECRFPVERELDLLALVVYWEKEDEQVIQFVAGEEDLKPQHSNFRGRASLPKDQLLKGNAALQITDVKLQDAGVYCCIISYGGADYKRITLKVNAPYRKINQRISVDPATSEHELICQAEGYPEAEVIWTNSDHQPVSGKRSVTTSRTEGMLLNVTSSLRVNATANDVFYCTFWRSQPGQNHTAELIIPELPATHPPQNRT
T8 sequence (G7PSE7 entry or part of it limits assumed): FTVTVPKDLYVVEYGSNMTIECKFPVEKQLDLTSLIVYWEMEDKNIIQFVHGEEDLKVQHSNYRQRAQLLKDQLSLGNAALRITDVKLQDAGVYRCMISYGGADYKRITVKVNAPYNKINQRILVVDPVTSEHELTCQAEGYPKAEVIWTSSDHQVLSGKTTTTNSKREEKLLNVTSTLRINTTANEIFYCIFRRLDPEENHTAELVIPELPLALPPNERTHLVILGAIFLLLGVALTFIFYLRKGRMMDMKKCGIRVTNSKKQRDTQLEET

B1: A09-188-1 (antibody, human IgG1, lambda, V domains shown)
VH: EVQLLESGGGLVQPGGSLRLSCAASGFTFSMYMMMWVRQAPGKGLEWVSSIYPSGGITFYADSVKGRFTISRDNSKNTLYLQMNSLRAEDTAIYYCARIKLGTVTTVDYWGQGTLVTVSS
VL: QSALTQPASVSGSPGQSITISCTGTSSDVGAYNYVSWYQQHPGKAPKLMIYDVSNRPSGVSNRFSGSKSGNTASLTISGLQAEDEADYYCSSYTSSSTRVFGTGTKVTVLG
notes: Parent antibody, lambda light chain, expressed as IgG
With B1, the “Relative KD” value in the test with human PD-L1 [1] was 1. In addition, in the test with human PD-L1 [2], binding was characterised by a dissociation constant (Kd) of 5.29 nM and the t½ was determined as 0.22 h. The binding result in the test with mouse PD-L1 is recorded as “binds”.

B2: A09-246-2 (antibody, human IgG1, lambda, V domains shown)
VH: B1 VH with M31S, M33I, S63T, I93V
VL: B1 VL with A31G
notes: lambda light chain
Consider B2, for which the binding result with hu-B7.2-huFc, with hu-PDL-2-huFc, in the test with hu-B7.1-huFc, in the test with huB7-H2-huFc and in the test with huB7-H3-huFc was “no binding” throughout. Further, the response in [3] was half-maximal at 0.94 nM (EC50).

B3: A09-222-1 (antibody, human IgG1, lambda, V domains shown)
VH: B1 VH with M31S, M33L, S63T, I93V
VL: B1 VL
notes: also called VH-M31S, M33L, S63T, I93V
Turning to B3, in the test with human PD-L1 [1], the “Relative KD” value turned out to be 0.23. In the test with human PD-L1 [2], the Kd came out at 1.24 nM and the t½ stood at 0.785 h.

B4: A09-247-2 (antibody, human IgG1, lambda, V domains shown)
VH: B1 VH with M31S, M33L, S63T, I93V
VL: B1 VL with A31G
notes: also called VL-A31G; VH-M31S, M33L, S63T, I93V
Take B4: the “Relative KD” value in the test with human PD-L1 [1] is 0.16. Further, in the test with human PD-L1 [2], binding was put at a Kd of 0.76 nM and the t½ was found to be 0.963 h.

B5: A09-202-1 (antibody, human IgG1, lambda, V domains shown)
VH: B1 VH
VL: B1 VL with A31G
notes: also called VL-A31G
In the case of B5, the “Relative KD” value in the test with human PD-L1 [1] worked out at 0.78. In the test with human PD-L1 [2], this molecule came in with a Kd of 4.15 nM and a t½ of 0.313 h.

B6: A09-212-1 (antibody, human IgG1, lambda, V domains shown)
VH: B1 VH with M33I, M35F, S63T, I93V
VL: B1 VL
notes: 193V read as I93V; also called VH-M33I, M35F, S63T, 193V
Turning to B6, in the test with human PD-L1 [2], the t½ was determined as 4.24 h.

B7: A09-243-2 (antibody, human IgG1, lambda, V domains shown)
VH: B1 VH with M31I, M33L, S63T, I93V
VL: B1 VL with A31G
notes: also called VL-A31G; VH-M31I, M33L, S63T, I93V
In the test with human PD-L1 [2], B7 had a t½ of 1.42 h.

B8: A09-223-1 (antibody, human IgG1, lambda, V domains shown)
VH: B1 VH with M31S, M35F, S63T, I93V
VL: B1 VL
notes: also called VH-M31S, M35F, S63T, I93V
In the case of B8, in the test with human PD-L1 [1], the “Relative KD” value turned out to be 0.68. In the test with human PD-L1 [2], this molecule returned a Kd of 3.62 nM and a t½ of 0.225 h.

B9: A09-213-1 (antibody, human IgG1, lambda, V domains shown)
VH: B1 VH with M31I, M35F, S63T, I93V
VL: B1 VL
notes: 193V read as I93V; also called VH-M31I, M35F, S63T, 193V
In the case of B9, the “Relative KD” value with human PD-L1 [1] was determined as 0.47. Further, in the test with human PD-L1 [2], binding was characterised by a dissociation constant (Kd) of 2.51 nM and the t½ came out at 0.462 h.

B10: A09-204-1 (antibody, human IgG1, lambda, V domains shown)
VH: B1 VH with M31I, M33I, M35F, S63T, I93V
VL: B1 VL
notes: positions counted from the N-terminus of the chain; also called VH-M31I, M33I, M35F, S63T, I93V
With B10, the “Relative KD” value in the test with human PD-L1 [1] came to 0.02. Further, in the test with human PD-L1 [2], the Kd stood at 0.1 nM and the t½ amounted to 9.64 h.

B11: A09-245-2 (antibody, human IgG1, lambda, V domains shown)
VH: B1 VH with M31S, M33L, M35F, S63T, I93V
VL: B1 VL with A31G
notes: also called VL-A31G; VH-M31S, M33L, M35F, S63T, I93V
With B11, the t½ in the test with human PD-L1 [2] turned out to be 1.29 h.

B12: A09-244-2 (antibody, human IgG1, lambda, V domains shown)
VH: B1 VH with M31S, M33I, M35F, S63T, I93V
VL: B1 VL with A31G
notes: also called VL-A31G; VH-M31S, M33I, M35F, S63T, I93V
Turning to B12, the “Relative KD” value with human PD-L1 [1] was 0.03. In the test with human PD-L1 [2], this molecule came in with a Kd of 0.12 nM and a t½ of 4.66 h.

B13: A09-248-2 (antibody, human IgG1, lambda, V domains shown)
VH: B1 VH with M31I, M33I, M35F, S63T, I93V
VL: B1 VL with A31G
notes: also called VL-A31G; VH-M31I, M33I, M35F, S63T, I93V
With B13, the “Relative KD” value with human PD-L1 [1] worked out at 0.02. In the test with human PD-L1 [2], the Kd was 0.1 nM and the t½ is 7.27 h.

B14: A09-211-1 (antibody, human IgG1, lambda, V domains shown)
VH: B1 VH with M31I, M33L, M35F, S63T, I93V
VL: B1 VL
notes: 193V read as I93V; also called VH-M31I, M33L, M35F, S63T, 193V
The molecule B14 showed a t½ with human PD-L1 [2] of 1.82 h.

B15: A09-240-2 (antibody, human IgG1, lambda, V domains shown)
VH: B1 VH with M33I, M35F, S63T, I93V
VL: B1 VL with A31G
notes: also called VL-A31G; VH-M33I, M35F, S63T, I93V
Take B15: the “Relative KD” value in the test with human PD-L1 [1] is 0.03. In the test with human PD-L1 [2], this molecule gave a Kd of 0.16 nM and a t½ of 4.1 h.

B16: A09-239-2 (antibody, human IgG1, lambda, V domains shown)
VH: B1 VH with M31I, M33L, M35F, S63T, I93V
VL: B1 VL with A31G
notes: also called VL-A31G; VH-M31I, M33L, M35F, S63T, I93V
With B16, in the test with human PD-L1 [2], the t½ stood at 2 h.

B17: A09-215-1 (antibody, human IgG1, lambda, V domains shown)
VH: B1 VH with M33L, M35F, S63T, I93V
VL: B1 VL
notes: 193V read as I93V; also called VH-M33L, M35F, S63T, 193V
B17: the “Relative KD” value in the test with human PD-L1 [1] was found to be 0.24. In the test with human PD-L1 [2], this molecule displayed a Kd of 1.28 nM and a t½ of 0.843 h.

B18: A09-214-1 (antibody, human IgG1, lambda, V domains shown)
VH: B1 VH with M31I, M33I, S63T, I93V
VL: B1 VL
notes: 193V read as I93V; also called VH-M31I, M33I, S63T, 193V
On to B18, for which the “Relative KD” value in the test with human PD-L1 [1] was found to be 0.08. In the test with human PD-L1 [2], binding was characterised by a dissociation constant (Kd) of 0.4 nM and the t½ amounted to 2.98 h.

B19: A09-216-1 (antibody, human IgG1, lambda, V domains shown)
VH: B1 VH with M31I, M33L, S63T, I93V
VL: B1 VL
notes: 193V read as I93V; also called VH-M31I, M33L, S63T, 193V
Regarding B19, the “Relative KD” value with human PD-L1 [1] stood at 0.17. In the test with human PD-L1 [2], this molecule returned a Kd of 0.91 nM and a t½ of 1.3 h.

B20: A09-219-1 (antibody, human IgG1, lambda, V domains shown)
VH: B1 VH with M31S, M33I, M35F, S63T, I93V
VL: B1 VL
notes: also called VH-M31S, M33I, M35F, S63T, I93V
Turning to B20, the “Relative KD” value with human PD-L1 [1] was determined as 0.03. In the test with human PD-L1 [2], the Kd was 0.18 nM and the t½ is 4.64 h.

B21: A09-220-1 (antibody, human IgG1, lambda, V domains shown)
VH: B1 VH with M31S, M33L, M35F, S63T, I93V
VL: B1 VL
notes: also called VH-M31S, M33L, M35F, S63T, I93V
For B21, the t½ with human PD-L1 [2] came out at 1.14 h.

B22: A09-242-2 (antibody, human IgG1, lambda, V domains shown)
VH: B1 VH with M33L, M35F, S63T, I93V
VL: B1 VL with A31G
notes: also called VL-A31G; VH-M33L, M35F, S63T, I93V
On to B22, for which, in the test with human PD-L1 [1], the “Relative KD” value came out at 0.16. For the same molecule, in the test with human PD-L1 [2], binding was characterised by a dissociation constant (Kd) of 0.76 nM and the t½ was found to be 0.927 h.

B23: A09-241-2 (antibody, human IgG1, lambda, V domains shown)
VH: B1 VH with M31I, M33I, S63T, I93V
VL: B1 VL with A31G
notes: also called VL-A31G; VH-M31I, M33I, S63T, I93V
In the case of B23, the “Relative KD” value with human PD-L1 [1] was 0.07. In addition, in the test with human PD-L1 [2], the Kd turned out to be 0.32 nM and the t½ was found to be 2.77 h.
